According to article PMC11192940:

Molecular target: GST-Rheb protein (UniProt Q15382)
Test: BLI

Sequence of GST-Rheb protein (Q15382 1-169): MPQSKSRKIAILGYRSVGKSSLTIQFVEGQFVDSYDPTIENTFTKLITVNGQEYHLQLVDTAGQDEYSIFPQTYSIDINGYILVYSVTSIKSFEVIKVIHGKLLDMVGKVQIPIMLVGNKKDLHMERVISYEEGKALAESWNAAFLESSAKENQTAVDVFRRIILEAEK

- Kd: 0.0542 µM
Substance: His-IL-37d, recombinant human IL-37d protein with a TAT peptide (pET-22b-TAT-his-IL-37d; mature IL-37d 21–197aa) (from UniProt Q9NZH6-4 21-197)
